The record followed here is patent US20130096282A1 (LOSTAM BIOPHARMACEUTICALS, published 2013).

For assay [1], the target named is T1, recombinantly-expressed P. aeruginosa flagellin type B (Pseudomonas aeruginosa, UniProt P72151 1-488).
T1 construct: also called PA flagellin type B; PA flagellin B
T1 sequence: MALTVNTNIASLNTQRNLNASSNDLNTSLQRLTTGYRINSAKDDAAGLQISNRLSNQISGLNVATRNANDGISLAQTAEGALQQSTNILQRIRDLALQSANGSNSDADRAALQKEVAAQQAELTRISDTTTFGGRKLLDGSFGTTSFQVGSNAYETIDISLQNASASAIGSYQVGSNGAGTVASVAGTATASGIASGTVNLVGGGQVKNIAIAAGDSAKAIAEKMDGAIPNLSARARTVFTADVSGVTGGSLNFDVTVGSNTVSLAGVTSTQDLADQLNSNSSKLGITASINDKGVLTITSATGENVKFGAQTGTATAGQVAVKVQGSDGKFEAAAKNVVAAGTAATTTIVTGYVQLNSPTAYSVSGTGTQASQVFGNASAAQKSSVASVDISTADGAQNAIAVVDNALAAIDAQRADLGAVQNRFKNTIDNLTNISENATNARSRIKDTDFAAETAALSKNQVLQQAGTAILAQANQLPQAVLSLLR
The experiment in a line: SPR (ProteOn XPR36), mAb amine-coupled to GLM chip, flagellin as analyte 5-80 nM, 1:1 model.

For assay [2], the target named is T1, recombinantly-expressed P. aeruginosa …. Kind of assay: ELISA, plates coated with recombinant flagellin type B (250 ng/well), anti-human Fc-HRP. (An ELISA detects its analyte on a solid surface through an enzyme-linked reagent.)
Assay [3] shares this target. The experiment in a line: ELISA on plates coated with purified flagellin type B.
In assay [4] the target is T2, flagellin type A of P. aeruginosa laboratory strain PAK (Pseudomonas aeruginosa, UniProt P21184 2-394).
T2 construct: whole, on cells; Tested on whole immobilized or formaldehyde-fixed bacteria (ELISA) and in blotted bacterial lysate (western blot)
T2 sequence: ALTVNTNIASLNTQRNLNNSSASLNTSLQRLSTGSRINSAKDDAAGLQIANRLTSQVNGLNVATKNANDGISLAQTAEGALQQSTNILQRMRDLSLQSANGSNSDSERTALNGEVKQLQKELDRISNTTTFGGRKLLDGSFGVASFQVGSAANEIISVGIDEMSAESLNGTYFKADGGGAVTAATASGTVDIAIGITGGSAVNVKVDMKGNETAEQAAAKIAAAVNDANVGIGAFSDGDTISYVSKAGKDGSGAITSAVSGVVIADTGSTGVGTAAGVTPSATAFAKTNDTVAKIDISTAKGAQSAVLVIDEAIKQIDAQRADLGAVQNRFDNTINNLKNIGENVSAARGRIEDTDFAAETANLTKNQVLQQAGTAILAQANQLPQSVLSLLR
Kind of assay: ELISA on whole immobilized bacteria, single point.

In assay [5] the target is T1, recombinantly-expressed P. aeruginosa …. The experiment in a line: ELISA, plates coated with recombinant flagellin type B at 5 µg/ml, anti-human Fc-HRP.
The target of assay [6] is T3, recombinantly-expressed P. aeruginosa flagellin type A (Pseudomonas aeruginosa, UniProt P21184 2-394).
T3 construct: also called PA flagellin type A; PA flagellin A
T3 sequence: T2 sequence
Kind of assay: ELISA, plates coated with recombinant flagellin type A (250 ng/well), anti-human Fc-HRP.

Assay [7] concerns the target T3, recombinantly-expressed P. aeruginosa …. The experiment in a line: SPR (ProteOn XPR36), mAb amine-coupled to GLM chip, flagellin as analyte 5-80 nM, 1:1 model.
Assay [8] has the same target. Kind of assay: ELISA on plates coated with purified flagellin type A.
The target of assay [9] is T4, flagellin type B of P. aeruginosa laboratory strain PA01 (Pseudomonas aeruginosa, UniProt P72151 1-488).
T4 construct: whole, on cells; Tested on whole immobilized or formaldehyde-fixed bacteria (ELISA), in blotted lysate (western blot) and on live bacteria (motility)
T4 sequence: T1 sequence
Kind of assay: immunoblot of P. aeruginosa lysates probed with LST-003, anti-human Fc peroxidase detection. On the technique in general: A western blot detects proteins with antibodies after separation by electrophoresis.

Assay [10] has as its target T4, flagellin type B of P. aeruginosa …. The experiment in a line: immunoblot of P. aeruginosa lysates probed with LST-001, anti-mouse Fc peroxidase detection.

B1: chimeric mAb LST-004 (antibody, V domains shown)
VH: EVMLVESGGGLVKPGGSLKLSCAASGFTFSTFTMSWVRQTPEKRLECVATINGGGGNTYYPDSVKGRFTISRDNAKNNLYLQMSSLRSEDTAFYFCSRLYGIYAMDYWGQGTSVTVSS
VL: DIVMTQSHIFMSTSVGDRVSITCKASQDVGSAVAWYQQKPGQSPKVLIYWTSTRHTGVPDRFAGSGSGTEFTLTISNVQSEDLADYFCQQYSSYPLTFGAGTKLELKR
notes: also called chimeric LST-004
As for B1, in [1], the Kd came to 1.3 nM. For the same molecule, in assay [2], the EC50 was ~0.3 µg/mL. The “EC50 (read off the curve)” value in [3] is ~1 nM.

B2: mouse monoclonal antibody LST-002 (antibody, V domains shown)
VH: B1 VH
VL: B1 VL
notes: Mouse monoclonal antibody; also called mouse LST-002; PaF4 IVE5 (ATCC HB9129)
Consider B2, for which, in [1], the Kd came out at 0.82 nM. For the same molecule, the binding result in assay [4] is “no binding (tested: 1:2 dilution, concentration not given)”.

B3: human monoclonal IgM antibody LST-007 (antibody, V domains shown)
VH: QVRLVQSGTEVKKPGASVRVSCKASGYTFSNYYMYWVRQAPGQGLEWMAMINPSGGSTRYAQKFQGRVTMTRDTSTSTVYMELSSLRSEDTAVYYCARADSGSYFGYWGQGTLVTVSS
VL: DIQLTQSPSFLSASVGDRVPITCRASQGISTHLAWYQQKPGKAPKLLIYAASTLQSGVPSRFSGSGSGTEFTLTISSLQPEDSATYYCQQLKSYPLTFGGGTKVEIKR
notes: Human IgM from an EBV-transformed lymphoblastoid cell line, tested as culture supernatant; also called 20H11 (ATCC CRL9300); human monoclonal IgM anti-flagella type B antibody
For the molecule B3, in assay [4], the binding result was “no binding”.

B4: fully human recombinant mAb LST-008 (antibody, V domains shown)
VH: B3 VH
VL: B3 VL
notes: Human IgG1 made in CHO-S cells; also called recombinant human LST-008
As for B4, the EC50 in assay [5] is ~0.01 µg/mL. Besides, the Kd in assay [1] was determined as 0.94 nM.

B5: chimeric mAb LST-003 (antibody, V domains shown)
VH: DVQLQESGPGLVKPSQSLSLPCSVTGYSITSGYYWNWIRQFPGNKLEWMGYIRYDGNNNYNPSLKNRISITHDTSKNQFFLKLNYVTTEDTATYYCARGLQFYFDSWGQGTTLTVSS
VL: DIVMSQSPSSLAVSGGEKVTMSCKSSQSLLNGSYQKHTLAWYQQKPGQSPKLLIYWASTRESGVPDRFTGSGSGTDFTLTISSVKAEDLAVYYCQQYYSYPWTFGGGTKLEIKR
notes: also called chimeric LST-003; chimeric anti-flagella type A antibody
Take B5: the EC50 in assay [6] is ~0.065 µg/mL. Moreover, the Kd in assay [7] is 3 nM. For the same molecule, the “EC50 (read off the curve)” value in [8] is ~0.7 nM. Further, the binding result in assay [9] is on record as “no binding (tested: 10 µg/ml)”.

B6: mouse monoclonal antibody LST-001 (antibody, V domains shown)
VH: B5 VH
VL: B5 VL
notes: Mouse monoclonal antibody; also called mouse LST-001; FA6 IIG5 (ATCC HB9130)
As for B6, the binding result in [10] is “no binding (tested: 10 µg/ml)”. The Kd in assay [7] was determined as 0.6 nM.

B7: dual-specific chimeric mAb LST-010 (bispecific antibody)
heavy: not shown
light: B5 VL
notes: also called dual-specific LST-010 mAb; not shown: human light constant domain (CL)
In the case of B7, the “EC50 (read off the curve)” value in assay [8] is ~0.9 nM.

In general, Kd refers to the free concentration of one partner at which half of the binding sites on the other are occupied at equilibrium, for simple one-to-one binding. The EC50 is the midpoint of the concentration-response curve. The term EC50 (read off the curve) denotes the midpoint of the concentration-response curve.
